According to patent US20240174758A1 (AstraZeneca / MedImmune, published 2024):

T1: human CCR9B (human, UniProt P51686 13-369)
T1 construct: Overexpressed on HEK cells; also called Hu B HEK; hCCR9 isoform B
T1 sequence: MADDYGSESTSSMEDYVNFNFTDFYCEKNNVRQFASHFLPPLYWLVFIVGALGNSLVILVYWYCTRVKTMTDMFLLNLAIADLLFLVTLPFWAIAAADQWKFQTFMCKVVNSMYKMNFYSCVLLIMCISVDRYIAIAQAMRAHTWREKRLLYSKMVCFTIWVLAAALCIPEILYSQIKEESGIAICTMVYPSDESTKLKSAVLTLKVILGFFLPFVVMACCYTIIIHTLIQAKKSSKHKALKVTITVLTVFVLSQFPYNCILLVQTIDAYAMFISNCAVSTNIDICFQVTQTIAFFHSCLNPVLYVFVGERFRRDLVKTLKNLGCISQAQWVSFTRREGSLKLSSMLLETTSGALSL

T2: cynomolgus CCR9 (cynomolgus, UniProt Q0H741 1-369)
T2 sequence: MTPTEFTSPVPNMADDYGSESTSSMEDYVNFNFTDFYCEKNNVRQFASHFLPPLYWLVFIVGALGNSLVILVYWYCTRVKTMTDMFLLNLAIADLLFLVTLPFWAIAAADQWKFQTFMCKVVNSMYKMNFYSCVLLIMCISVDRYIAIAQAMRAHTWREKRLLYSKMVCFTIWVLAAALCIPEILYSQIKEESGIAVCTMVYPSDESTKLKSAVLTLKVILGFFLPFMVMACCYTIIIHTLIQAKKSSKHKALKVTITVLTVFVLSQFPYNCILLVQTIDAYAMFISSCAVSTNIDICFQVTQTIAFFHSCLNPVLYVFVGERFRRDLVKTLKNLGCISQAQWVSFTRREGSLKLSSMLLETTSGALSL

T3: mouse CCR9 (mouse, UniProt Q9WUT7 1-369)
T3 construct: whole, on cells; Overexpressed on HEK cells; also called mCCR9; Mouse HEK
T3 sequence (looked up): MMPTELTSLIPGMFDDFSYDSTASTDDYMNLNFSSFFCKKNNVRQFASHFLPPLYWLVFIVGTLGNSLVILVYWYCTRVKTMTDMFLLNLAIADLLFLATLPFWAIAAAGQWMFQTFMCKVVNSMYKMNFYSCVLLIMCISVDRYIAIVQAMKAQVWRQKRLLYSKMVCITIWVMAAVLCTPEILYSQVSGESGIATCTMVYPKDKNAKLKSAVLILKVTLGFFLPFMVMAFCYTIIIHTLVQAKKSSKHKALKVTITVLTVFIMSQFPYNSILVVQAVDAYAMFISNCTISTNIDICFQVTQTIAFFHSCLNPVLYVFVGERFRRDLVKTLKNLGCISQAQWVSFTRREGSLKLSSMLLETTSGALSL

T4: rat CCR9 (rat, UniProt Q8CH33 1-369)
T4 construct: Overexpressed on HEK cells; also called Rat HEK
T4 sequence: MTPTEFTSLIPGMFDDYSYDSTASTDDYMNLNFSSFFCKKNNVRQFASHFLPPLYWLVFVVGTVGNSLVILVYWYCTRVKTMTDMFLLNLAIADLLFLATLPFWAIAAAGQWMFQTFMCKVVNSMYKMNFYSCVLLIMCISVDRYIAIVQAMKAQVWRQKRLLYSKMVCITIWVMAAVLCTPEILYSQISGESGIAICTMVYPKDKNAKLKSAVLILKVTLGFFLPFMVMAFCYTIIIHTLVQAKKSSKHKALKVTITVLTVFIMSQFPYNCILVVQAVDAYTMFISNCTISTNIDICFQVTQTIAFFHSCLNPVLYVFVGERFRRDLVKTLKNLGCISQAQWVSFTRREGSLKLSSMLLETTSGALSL

T5: human CCR9A (human, UniProt P51686 1-369)
T5 construct: Overexpressed on HEK cells; also called Hu A HEK; hCCR9 isoform A
T5 sequence: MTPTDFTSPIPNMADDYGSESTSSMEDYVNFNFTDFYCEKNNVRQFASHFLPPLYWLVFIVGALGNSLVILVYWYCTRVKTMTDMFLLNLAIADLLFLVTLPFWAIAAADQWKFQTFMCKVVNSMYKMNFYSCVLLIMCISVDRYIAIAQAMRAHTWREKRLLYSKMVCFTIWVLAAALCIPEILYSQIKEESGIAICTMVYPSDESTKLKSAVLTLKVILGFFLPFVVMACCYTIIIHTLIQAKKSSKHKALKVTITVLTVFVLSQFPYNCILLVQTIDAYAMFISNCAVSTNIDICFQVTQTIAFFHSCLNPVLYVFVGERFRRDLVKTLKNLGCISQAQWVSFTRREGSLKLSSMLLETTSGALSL


What was measured:
[1] = target: CCR9 (species and isoform not stated) (UniProt P51686)
[2] = target: human CCR9 (isoform not given) (human) (UniProt P51686); experiment: cell-based or functional assay
[3] = target: CCR9 (species and isoform not stated) (UniProt P51686); experiment: LigandTracer on CCR9-expressing CHO K1 cells, DyLight 650 labelled IgG, bivalent (1:2) fit, about 22 C
human CCR9B [4] = target: T1, human CCR9B; experiment: binding to HEK cells expressing human CCR9B (huCCR9B), FL1 counts against Log M, methods of Example 4
[5] = target: CCR9 (species and isoform not stated) (UniProt P51686); experiment: cell-based or functional assay
[6] = target: human CCR9 (isoform not given) (human), P51686
cynomolgus CCR9 = target: T2, cynomolgus CCR9; experiment: cell-based or functional assay
[7] = target: human CCR9 (isoform not given) (human), P51686; experiment: cell-based or functional assay
mouse CCR9 = target: T3, mouse CCR9; experiment: cell binding by the methods of Example 4
rat CCR9 = target: T4, rat CCR9; experiment: cell binding by the methods of Example 4
human CCR9A = target: T5, human CCR9A; experiment: binding to cells expressing human CCR9A, FL1 counts against Log M, methods of Example 4
human CCR9B [8] = target: T1, human CCR9B; experiment: binding to cells expressing human CCR9B, FL1 counts against Log M, methods of Example 4

EC50 of a CPS dose-response curve (potency; luminescence counts per second as in the NK cell activation assay of Example 4); target cells not named on the sheet (M (axis Log M; no unit in the table)) [1]	Potency, NK cell activation assay (NK-92 MI CD16a NFAT luciferase, in vitro ADCC bioassay) [2]	koff [3]	binding result (human CCR9B [4])	CCL25 induced CCR9 internalisation (FACS) [5]	IC50 (read off the curve) [6]	binding result (mouse CCR9)	binding result (rat CCR9)	Kd [3]	binding result (human CCR9A)	binding result (human CCR9B [8])	Binder	EC50, killing of cynomolgus CD4+CCR9+ PBMC (cynomolgus CCR9)	EC50, killing of PBMC [7]	EC50, killing of human CD4+CCR9+ PBMC [7]
7.3e-09	0.8 nM	4.3e-05 s⁻¹	binds								Humanised AB1020243 (AB1020243-fgl) (antibody, V domains shown, For LigandTracer it was labelled with DyLight 650 on an engineered cysteine in CH2; also called humanised AB1020243 afuc) VH: QVQLVQSGAEVKKPGASVKVSCKASGYTFTSYWMHWVRQAPGQGLEWIGVIYPGNSDTRYNQKFKGRVTITRDTSASTAYMELSSLRSEDTAVYYCTRDYYSNYVYYYAMDYWGQGTTVTVSS VL: DIVMTQTPLSLPVTPGEPASISCRSSQSLVHSNGNTYLHWYLQKPGQSPQLLIYKVSNRFSGVPDRFSGSGSGTDFTLKISRVEAEDVGVYYCSQSTHVPWTFGQGTKLEIK			
				2 nM	0.7 nM	no binding	no binding	0.09 nM	binds	binds	AB243LO0326 (antibody, V domains shown, CDR-optimised humanised antibody, a-fuc huIgG1 (afucosylated in all experiments); For LigandTracer it was labelled with DyLight 650 on an engineered cysteine in CH2; also called CDR-optimised AB1020243) VH: QVQLVQSGAEVKKPGASVKVSCKASGYTFTSYWMHWVRQAPGQGLEWIGVIYPGNSDTRYNQKFKGRVTITRDTSASTAYMELSSLRSEDTAVYYCTRDYYSNYVYYYAMDYWGQGTTVTVSS VL: DIVMTQTPLSLPVTPGEPASISCRSSQSLVHPNRNTYLHWYLQKPGQSPQLLIYKVSNRFSGVPDRFSGSGSGTDFTLKISRVEAEDVGVYYCSQSTHVPWTFGQGTKLEIK	0.03 nM	0.004 nM	0.004 to 0.005 nM
					0.7 nM	no binding	no binding				AB243LO0331 (antibody, V domains shown, CDR-optimised humanised antibody, a-fuc huIgG1 (afucosylated in all experiments); The constant regions are not expressly tied to it) VH: QVQLVQSGAEVKKPGASVKVSCKASGYTFTSYWMHWVRQAPGQGLEWIGVIYPGNSDTRYNQKFKGRVTITRDTSASTAYMELSSLRSEDTAVYYCTRDYYSNYVYYYAMDYWGQGTTVTVSS VL: DIVMTQTPLSLPVTPGEPASISCRSSQSLVHSNTNTYLHWYLQKPGQSPQLLIYKVSNRFSGVPDRFSGSGSGTDFTLKISRVEAEDVGVYYCSQSTHVPWTFGQGTKLEIK			
